Assay results reported in the nanobody polyreactivity screen of Harvey et al. (2022).

test: yeast display, Sf9 membrane polyspecificity reagent, FACS + sequencing; frameworks hold sequencing errors
Summary of the method: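 Polyreactivity labels are assigned by the sorting gate from which each nanobody was recovered. The gates were low and high (top ~1%), set on anti-HA fluorescence for expression and streptavidin fluorescence for reagent binding. Before sorting, galactose-induced (36–48 hours) yeast display cells were stained for 1 hour at 4 °C with 10% biotinylated, detergent-solubilized Sf9 membrane reagent.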

Row | Sequence | polyreactivity (PSR sort gate)
1 | QVQLVESGGGLVQAGGSLRLSCAASGITFGYNAMGWYRQAPGTEREFVAGISWSGGSTYYADSVKGRFTISRDNAKNTVYLQMNSLKPEDTAVYYCAKLARGGWYGGGRSLSYGYWGQGTQVTVSS | high polyreactivity
2 | QVQLVESGGGLVQAGGSLRLSCAASGITFGYYAMGWYRQAPGKEREMVAAISFTGASTYYADSVKGRFTISRDNAKNTVYLQMNSLKPEDTAVYYCAADPYVPYQDFLSGFDYWGQGTQVTVSS | low polyreactivity
3 | QVQLVESGGGLVQAGGSLRLSCAASGITFGYYDMGWYRQAPGKERELVASISSGGNTNYADSVKGRFTISRDNAKNTVYLQMNSLKPEDTAVYYCNVRYWGFYDYDYWGQGTQVTVSS | low polyreactivity
4 | QVQLVESGGGLVQAGGSLRLSCAASGITFHKYAMGWYRQAPGKERELVAAISSGGGTYYADSVKGRFTISRDNAKNTVYLQMNSLKPEDTAVYYCNADIEWLWVRYDYWGQGTQVTVSS | high polyreactivity
5 | QVQLVESGGGLVQAGGSLRLSCAASGITFIGYPMGWYRQAPGKERELVASITSGANTNYADSVKGRFTISRDNAKNTVYLQMNSLKPEDTAVYYCAAPEHGTYANILGEPLDYWGQGTQVTVSS | low polyreactivity
6 | QVQLVESGGGLVQAGGSLRLSCAASGITFIKNAMGWYRQAPGKERELVAAISRSGGRTYYADSVKGRFTISRDNAKNTVYLQMNSLKPEYTAVYYCAAVTQRSYIYDYWGQGTQVTVSS | high polyreactivity
7 | QVQLVESGGGLVQAGGSLRLSCAASGITFIRNGMGWYRQAPGKERELVAAISYTGARTYYADSVKGRFTISRDNAKNTVYLQMNSLKPEDNAVYYCAAEVRTRYLYSFRWYDYWGEGTQVTVSS | low polyreactivity
8 | QVQLVESGGGLVQAGGSLRLSCAASGITFISYVMGWYRQAPWKERELLAAISKRGGSTYYADSVKGRFTISRDNAKNTVYLQMNSLKPEDTAVYYCAAKTIPWSVGYDYWGQGTQVTVSS | high polyreactivity
9 | QVQLVESGGGLVQAGGSLRLSCAASGITFKFYAMGWYRQAPGKEREWVATISWSGGITYYADSVKGRFTISRDNAKNTVYLQMNSLKPEDTAVYYCAADGPFTPRYYYWGQGTQVTVSS | low polyreactivity
10 | QVQLVESGGGLVQAGGSLRLSCAASGITFKGYTMGWYRQAPGKEREFVAAISWGGGRTYYADSVKGRFTISRDNAKNTVYLQMNSLKPEDTAVYYCNGAPYTRALQGEFDYWGQGTQVTVSS | high polyreactivity
11 | QVQLVESGGGLVQAGGSLRLSCAASGITFKLNAMGWYRQAPGKERELVAAISYNGVRTYYADSVKGRFTISRDNAKNTVYLQMNRLKPEDTAVYYCAALLRGQDRTMDYWGQGTQVTVSS | high polyreactivity
12 | QVQLVESGGGLVQAGGSLRLSCAASGITFKRYAMGWYRPAPGKERELVAAITISAGSTYYADSVKGRFTLSRDNAKNTVYLQMNSLKPEDTAVYYCAAESYGSWYYYWGQGTQVTVSS | high polyreactivity
13 | QVQLVESGGGLVQAGGSLRLSCAASGITFKSYAMGWYRQAPGKERELVAAISRRGGSTYDADSVKGRFTISRDNAKNTVYLQMNSLKPEDTAVYYCNAAVGYYSYSYYTKVGVDYLGQGTQVTVSS | high polyreactivity
14 | QVQLVESGGGLVQAGGSLRLSCAASGITFKYAMGWYRQAPGKERELVAAISGGGRTNYADSVKGRFTISRDNAKNTVYLQMNSLKPEDTAVYYCAAQGSRWWGFDYWGQGTQVTVSS | high polyreactivity
15 | QVQLVESGGGLVQAGGSLRLSCAASGITFKYYAMGWYRQAPGKEREFVASISARGGGTYYADSVKGRFTISRDNAKNTVYLQMNSLKPEDTAVYYCAVDYRYGYFVYVHYEYWGQGTQVTVSS | high polyreactivity
16 | QVQLVESGGGLVQAGGSLRLSCAASGITFLDYAMRWYRQAPGKERELVAAITKSVGSTYYADSVKGRFTISRDNAKNTVYLQMNSLKPEDTAVYYCAADPDSGQVPFDYWGQGTQVTVSS | low polyreactivity
17 | QVQLVESGGGLVQAGGSLRLSCAASGITFLWNARGWYRQAPGKERELVAVISIGGSTYYADSVKGRFTISRDNAKNTVYLQMNSLKPEDTAVYYCAATEGPAYDYEYWGQGTQVTVSS | low polyreactivity
18 | QVQLVESGGGLVQAGGSLRLSCAASGITFLYYAMGWYRQAPGQERELVAAITSSGGRTYYADSVKGRFTISRDNAKNTVYLQMNSLKPEDTAVYYCAADSRTYNGGYYWGQGTQVTVSS | high polyreactivity
19 | QVQLVESGGGLVQAGGSLRLSCAASGITFMFYAMGWSRQAPGKVRELVAAISSSGGTTYYADSVKGRFTISRDNAKNTVYLQMNSLTPEDTAVYYCAARRVLASWYDYNYWGQGTQVTVSS | high polyreactivity
20 | QVQLVESGGGLVQAGGSLRLSCAASGITFNGNAMGWYRQAPGKERELVAAITRTGTDTSYADSVKGRFTISRDNAKNTVYLQMNSLKPEDTAVYYCAAPPYNGYRYGTTGYYWGQGTQVTVSS | low polyreactivity
21 | QVQLVESGGGLVQAGGSLRLSCAASGITFNPNAMGWYRQAPGKERELVAVITYRGGSTYYADSVMGRFTISRDNAKNTVYLQMNSLKPADTAVYYCAAQYIGWHLYWYDYWGQGTQVTVSS | low polyreactivity
22 | QVQLVESGGGLVQAGGSLRLSCAASGITFNYYAMGWYRQAPGKERELVAAISLSGGRTRYADSVKGRFTISRDNAKNTVYLQMNSLKPEDTAVYYCAAYSFRYVPWPDGMGYWGQGTQVTVSS | high polyreactivity

Row | Sequence | polyreactivity (PSR sort gate)
23 | QVQLVESGGGLVQAGGSLRLSCAASGITFNYYAMGWYRQAPGKERELVAAISWSGDRTYYADTVKGRFTISRDNAKYTVYLQMNSLKPEDTAVYYCAAKSVGEGDYWGQGTQVTVSS | low polyreactivity
24 | QVQLVESGGGLVQAGGSLRLSCAASGITFPDNAMGWSRQAPGKERELVAAITYSGGSTYYADSVKGRFTISRDNAKNTVYLQMNSLKPEDTAVYYCAADWYWSSSYSDWEDYWGQGTQVTVSS | low polyreactivity
25 | QVQLVESGGGLVQAGGSLRLSCAASGITFPGNAMGWYRQAPGKERELVAVISFGDGGTYYADSVKGRFTISRDNAKNTVYLQMNSLKPEDTAVYYCATDYQSTSVWGGHFVINPYDYWGQGTQVTVSS | low polyreactivity
26 | QVQLVESGGGLVQAGGSLRLSCAASGITFPGYAMGWYRQAPGKERELVAVIRKSGTSTGGNTYYADSVKGRFTISRDNAKNTVYLQMNSLKPEDTAVYYCAKKYVWTHNYWGQGTQVTVSS | low polyreactivity
27 | QVQLVESGGGLVQAGGSLRLSCAASGITFPINTMGWYRQAPGKERELVAGIDWTGGSTYYADSVKGRFTISRDNAKIPVYLLMNSLKPEHTAVYYCAKTRRRLLTRYDYWGQGTQVTVSS | low polyreactivity
28 | QVQLVESGGGLVQAGGSLRLSCAASGITFPLYAMGWYRQAPGKERELVAAISRRGGRTYADSVKGRFTISRDNAKNTVYLQMNSLKPEDTAVYYCAAKGYSYSRDFYSWGQGTQVTVSS | high polyreactivity
29 | QVQLVESGGGLVQAGGSLRLSCAASGITFPRYVMGWYRQAPGKERELVAAISTSGGSTYYADSVKGRFTISRDNAKNTVYLQMNSLKPEDTAVYYCAALDIYSSTYPVEYDYWGQGTQVTVSS | high polyreactivity
30 | QVQLVESGGGLVQAGGSLRLSCAASGITFPSYAMGWYRQAPGKERELVATISRGDSTYYADSVKGRFTISRDNAKNTVYLQMNSLKPEDTAVYYCATRAYRLDPLQHDYWGQGTQVTVSS | low polyreactivity
31 | QVQLVESGGGLVQAGGSLRLSCAASGITFPVYAMGWYRQAPGKERELVATITSSGGRTYYADSVKGRFTISRDNAKNTVYLQMNSLKPEDTAVYYCAARPPYIRTLYYWGQGTQVTVSS | high polyreactivity
32 | QVQLVESGGGLVQAGGSLRLSCAASGITFPYYAMGWYRQAPGKERELVAAINGNGGRTYYADSVKGRFTISRDNAKNNVYLDMNSLKPEDTAVYYCADRVVHVKGPRMDYWGQGTQVTLSS | high polyreactivity
33 | QVQLVESGGGLVQAGGSLRLSCAASGITFPYYAMGWYRQAPGKERELVAAISAGGTRTYYADSVKGRFTISRDNAKNTVYLQMNSLKPEDTAVYYCAARVWPIVQNYYWGQGTQVTVSS | high polyreactivity
34 | QVQLVESGGGLVQAGGSLRLSCAASGITFQGNAMGWYRQAPGKEREFVAAISWSGDSTYYADSVKGRFTISRDNAKNTVYLQMNSLKPEDTAVYYCAASRVIPSYPYYKYDYWGQGTQVTVSS | low polyreactivity
35 | QVQLVESGGGLVQAGGSLRLSCAASGITFQKYVMGWYRQAPGKEREFVAAITARGGTTYYADSVKGRFTISRDNAKNTVYLQMNSLKPEDTAVYYCAADLRRFQSYYYWGQGTQVTVSS | high polyreactivity
36 | QVQLVESGGGLVQAGGSLRLSCAASGITFQRYAMGWYRQAPGKERELVAAITRGGSTNYADSVKGRFTISRDNAKNTVYLQMNSLKPEDTAVYYCAAGARYGYGYWGQGTQVTVSS | high polyreactivity
37 | QVQLVESGGGLVQAGGSLRLSCAASGITFQYYAMGWYRQAPGKERELGAAITSSGVSTYYADSVKGRFTISRDNAKNTVYLQMNSLKPEDTAVYYCNTVVRGWSSSAYVYWGQGTQVTVSS | low polyreactivity
38 | QVQLVESGGGLVQAGGSLRLSCAASGITFRAYVMGWYRQAPGKERELVAAINRRGGSTYYADSVKGRFTISRDNEKNTVYLQMNSLKPEDTAVYYCGNGDFDYWGQGTQVTVSS | high polyreactivity
39 | QVQLVESGGGLVQAGGSLRLSCAASGITFRFYAMGWYRPAPGKEREFVAAISSRGGRTYYADSVKGRFTISRDNATNTVYLQMNSLKPEDTAVYYCAADFYYRTVATVTSVARYDYWGQGTQVTVSS | high polyreactivity
40 | QVQLVESGGGLVQAGGSLRLSCAASGITFRGNAMGWYRQAPGKERELVAAISRRGGNTNYADSVKGRFTISRDNAKNTVYLQMNSLKPEDTAVYYCAADITTYRRGRYEYEYWGQGTQVTVSS | high polyreactivity
41 | QVQLVESGGGLVQAGGSLRLSCAASGITFRGYVMGWYRQAPGKERELVADISRRGGSTYADSVKGRFTISRDNAKNTVYLQMNSLKPEDTAVYYCNAGWRPHNLNQVGYSSYGYYYWGQGTQVTVSS | high polyreactivity
42 | QVQLVESGGGLVQAGGSLRLSCAASGITFRHYAMGWYRQAPGKEREFVAAITASGSSTYYADSVKGRFTISRDTAKNTVYLQMNSLKPEDTAVYYCAAAGYKYNSRGDYWGPGTQVTVSS | high polyreactivity
43 | QVQLVESGGGLVQAGGSLRLSCAASGITFRKYAMGWYRPAPGKERELVAAISSGGSRTYYADSVKGRFTISRDNAKNTVYLQMNSLKPEDTAVYYCAARKADTVFKFEYWGQGTQVTVSS | high polyreactivity
